According to article PMC9712689 (Communications Biology, 2022):

T1: RlpA-Δ32·MltF2 complex (MST) (P. aeruginosa PAO1, UniProt Q9X6V6;Q9HZY1, amine reactive RED-NHS dye)
T1 sequence 1: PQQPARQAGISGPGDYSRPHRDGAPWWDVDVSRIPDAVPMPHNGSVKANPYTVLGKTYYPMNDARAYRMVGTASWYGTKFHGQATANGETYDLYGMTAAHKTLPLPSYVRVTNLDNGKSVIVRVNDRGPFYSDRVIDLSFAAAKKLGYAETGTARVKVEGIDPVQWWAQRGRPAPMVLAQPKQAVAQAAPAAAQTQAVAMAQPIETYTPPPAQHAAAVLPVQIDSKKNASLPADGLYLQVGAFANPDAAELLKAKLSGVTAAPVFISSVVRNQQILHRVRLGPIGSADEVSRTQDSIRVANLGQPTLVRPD
T1 sequence 2: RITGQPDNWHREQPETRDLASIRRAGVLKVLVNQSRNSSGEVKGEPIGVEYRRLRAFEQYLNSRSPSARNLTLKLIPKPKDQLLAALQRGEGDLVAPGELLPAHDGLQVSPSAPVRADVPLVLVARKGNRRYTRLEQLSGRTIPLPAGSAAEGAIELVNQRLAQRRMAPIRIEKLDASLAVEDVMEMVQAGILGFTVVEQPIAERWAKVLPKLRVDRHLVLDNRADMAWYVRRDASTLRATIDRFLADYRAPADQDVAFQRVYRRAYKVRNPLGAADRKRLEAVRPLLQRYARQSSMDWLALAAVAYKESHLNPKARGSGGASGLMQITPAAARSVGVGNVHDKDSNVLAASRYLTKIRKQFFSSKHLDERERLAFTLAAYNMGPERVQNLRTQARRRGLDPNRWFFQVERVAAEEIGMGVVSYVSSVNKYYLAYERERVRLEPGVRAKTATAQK

T2: RlpA-Δ32, fluorescently labeled (P. aeruginosa PAO1, UniProt Q9X6V6 32-342, amine reactive RED-NHS dye)
T2 construct: source: E. coli BL21-star (DE3), purified (Ni-NTA), labelled with RED-NHS dye
T2 sequence: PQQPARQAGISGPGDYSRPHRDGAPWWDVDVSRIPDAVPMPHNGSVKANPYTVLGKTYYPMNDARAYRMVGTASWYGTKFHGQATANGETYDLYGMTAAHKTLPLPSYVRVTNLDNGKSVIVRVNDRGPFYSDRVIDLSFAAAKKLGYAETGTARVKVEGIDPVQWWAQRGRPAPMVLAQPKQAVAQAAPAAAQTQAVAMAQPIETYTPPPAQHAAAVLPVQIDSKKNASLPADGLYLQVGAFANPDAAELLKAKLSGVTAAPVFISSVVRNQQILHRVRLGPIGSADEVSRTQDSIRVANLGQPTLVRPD

T3: RlpA-Δ32 (P. aeruginosa PAO1, UniProt Q9X6V6 32-342)
T3 construct: source: E. coli BL21-star (DE3), purified (Ni-NTA)
T3 sequence: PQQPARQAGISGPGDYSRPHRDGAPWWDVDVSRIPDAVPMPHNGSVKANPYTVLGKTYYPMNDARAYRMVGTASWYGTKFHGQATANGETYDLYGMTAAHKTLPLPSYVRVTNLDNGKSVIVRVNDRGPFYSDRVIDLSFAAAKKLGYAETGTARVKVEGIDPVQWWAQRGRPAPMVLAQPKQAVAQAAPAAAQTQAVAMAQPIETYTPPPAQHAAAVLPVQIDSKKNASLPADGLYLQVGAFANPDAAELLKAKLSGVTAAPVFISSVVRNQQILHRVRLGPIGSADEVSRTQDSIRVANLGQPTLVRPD


What was measured:
Conditions in all cases: both partners purified
[1] = target: T1, RlpA-Δ32·MltF2 complex (MST); experiment: MST
[2] = target: T2, RlpA-Δ32, fluorescently labeled; experiment: MST
[3] = target: T3, RlpA-Δ32; experiment: SPR

Row | Binder | Kd [1] [nM] | Kd [2] [nM] | Kd [3] [nM] | koff [3] [s⁻¹] | kon [3] [M⁻¹ s⁻¹]
1 | SltB2 (enzyme, P. aeruginosa PAO1, UniProt Q9I4G6 1-398, looked up) QPDASSFPSCLAGLQKKAQAQGISADSYERFTSGLQADLSVLDLLDAQPEFTTPLWDYLAGLVDEQRVSDGKAMLAQHDKLLDQVAARYGVDKYTVVAVWGVESDYGRIFGKRPLLTSLSTLSCYGRRQSFFQGEFLATLKLLQAGDIRDAGITGSWAGAFGHTQFMPSTYARIAVDFDGDGRRDLVGSVPDALGSTANYLKKAGWRTGQPWGYEVKVPADFPASLAGRGKRQPLSAWVARGVRRVDGQPLPGGDEKAAILLPAGAQGPAFLVYRNYDAIYSYNAAESYALAIALLSDRLRGGSGLVASWPTDDPGISRLERKQLQKALLARGYDIGEADGLIGTSTRKAIQAEQKRLGLTPADGRAGRKILEALKGAQP | 150 | – | – | – | –
2 | PilA (natural protein, source: E. coli, purified (Ni-NTA or Strep-Tactin)) PQYQNYVARSEGASALATINPLKTTVEESLSRGIAGSKIKIGTTASTATETYVGVEPDANKLGVIAVAIEDSGAGDITFTFQTGTSSPKNATKVITLNRTADGVWACKSTQDPMFTPKGCDN | 309 | 240 | 1980 | 0.00218 | 1100
3 | MltA (enzyme, P. aeruginosa PAO1, UniProt Q9I4B6 1-385, looked up) DDGKKEPPPKPAEVTTYNSVPWDALPATSDADLLAGFNAWRSACARLAKDPVWGEPCASATTVAADPTAVRAFLQERMQVYSLRSSSNGDQGLITGYYEPVYHGSLSQGEKTPVPVYGVPDDLVVVALESVYPELKGKRLRGRLEGRVLKPYDDAATIRDNGSSAPVLAWLGDPMDLQFLQIQGSGRIQLEDGRQLRIGYGDQNGHPYKPVGRWLVEQGLVPKEEISMKRIRDWAEANPQRVSELLASNPSFVFFSLRPDSDEGPRGSLNVPLTDGYSVAIDRKVIPLGSLMWLSTTRPDDGSAVVRPVAAQDTGGAIVGEVRADLFWGTGDAAGELAGHMKQPGRLWLLWPKGAPLPAS | 35 | – | – | – | –
4 | LptE (natural protein) not shown | 150 | 77 | – | – | –
5 | SltB1 (enzyme, P. aeruginosa PAO1, UniProt Q9HX24 1-340, looked up) GDYDGSPQVAEFVSEMTRDYGFAGEQLMGLFRDVNRKQSILDAISRPAERVKQWKEYRPIFISDARISRGVDFWNKHAEDLARAEKEYGVPAEIIVSIIGVETFFGRNTGSYRVMDALSTLGFDYPPRADFFRKELREFLLLAREQQVDPLSLTGSYAGAMGLPQFMPSSFRAYAVDFDGDGHINIWSDPTDAIGSVASYFKQHGWVTGEPVVSVAEINDESAESAVTRGVDPTMSLGELRARGWRTHDALRDDQKVTAMRFVGDKGIEYWVGLPNFYVITRYNRSAMYAMAVYQLAGEIARARGAH | 95 | 140 | 3850 | 0.00127 | 330
6 | PBP4 (enzyme, P. aeruginosa PAO1, UniProt Q9HZG1 1-476, looked up) QVNATLPANVQKALQTNKLTGNDLSLVLIPLDGPGNPTYYNADVSVNPASTMKLFTTYAALEMLGPTYQWKTEFYTDGQLKNGVLNGNLYLKGGGDPKLNMEKLWLLMRDLRANGVTKVTGDLVLDRSYFNIPQLPVFNDDGGDDTKPFLVGPDSLLVNLKSVRMVVRTDGNKVNVQMDPPLANVRIDNQVKMTAPATCPAWPKLRFSPVTQFDGTTLLATGQIPQGCSAQTYMSLLDHPGYTAGAVRGIWQELGGSILGKDRQGSVPRNATLIAKAFSPDLVEIIRDINKYSNNTMARQLFLSIGAQFRNSADGDDAQAAQRVVRQWLARKGITAPRLVMENGSGLSRQERVSAREMAAMLQAAWHSPYAAEYISSLPLAGLDGTMRKRLRRTALVGEAHVKTGTLNTVRALAGFSRDASGHNWVVVAILNSPRPWGASAILDQVLLSLHARK | 240 | – | – | – | –
7 | PBP7 (enzyme, P. aeruginosa PAO1, UniProt P72161 24-310, looked up) SPPPKAGLPLQQELASGSALVTDQNTGKVLYSRNPDLVVPIASITKLMTAMVVLDSKLPLDEVLPIAISETSEMRGVFSRVRVGSQISRRDMLLLALMSSENRAAASLAQNYPGGKNAFVKAMNAKAHALGMKNTRYVEPTGLSLHNVSTARDLTRLLVASRQYPLLSQWSTTPEKTVAFRHPNYTLGFRNTNHLINNKTWNIQLTKTGFTNEAGHCLVMRTTINRSPVNLVVLDAFGKYTHFADATRLRRWLETGQVTAIPAAAKAYRLQRDRERGLGQPVAQAVR | – | 430 | – | – | 5900
8 | MltF (enzyme, P. aeruginosa PAO1, UniProt Q9HXN1 33-490, looked up) PTALERVQKEGVLRVITRNSPATYFQDRNGETGFEYELAKRFAERLGVELKIETADNLDDLYAQLSREGGPALAAAGLTPGREDDASVRYSHTYLDVTPQIIYRNGQQRPTRPEDLVGKRIMVLKGSSHAEQLAELKKQYPELKYEESDAVEVVDLLRMVDVGDIDLTLVDSNELAMNQVYFPNVRVAFDFGEARGLAWALPGGDDDSLMNEVNAFLDQAKKEGLLQRLKDRYYGHVDVLGYVGAYTFAQHLQQRLPRYESHFKQSGKQLDTDWRLLAAIGYQESLWQPGATSKTGVRGLMMLTNRTAQAMGVSNRLDPKQSIQGGSKYFVQIRSELPESIKEPDRSWFALAAYNIGGAHLEDARKMAEKEGLNPNKWLDVKKMLPRLAQKQWYAKTRYGYARGGETVHFVQNVRRYYDILTWVTQPQMEGSQIAESGLHLPGVNKTRPEEDSGDEKL | 260 | – | – | – | –
9 | TypA (natural protein, P. aeruginosa PAO1, UniProt Q9HU67 1-605, looked up) MIENLRNIAIIAHVDHGKTTLVDKLLKLSGTLDRKEAESERVMDSNDQEKERGITILAKNTAIKWNGYNINIVDTPGHADFGGEVERVMSMVDSVLLVVDAQDGPMPQTRFVTQKAFKAGLRPIVVVNKIDRPGARPDWVIDQIFDLFDNLGATDEQLDFPIVYASALNGIAGLDHEKMDDNMDALFQAIIDHVPAPVVDTEGPFQMQISQLDYNSFLGVIGIGRITRGKVKSNTPVVAISDDGSKRNGRILKIMGHHGLQRVEVAEAEAGDIVCVSGMEELFISDTLCDPQNVEALPPLTVDQPTVSMTFQVNDSPFAGREGKFVTSRNIKERLEKELLHNVALRVEPGDSPEKFKVSGRGELHLSVLIETMRREGFELAVGRPEVVIIEKDGEKQEPYENVTIDIEEQHQGSVMEQMGLRKGDLSNMIPDGKGRVRLEYTIPARGLIGFRNNFLTLTSGTGILTSTFSHYGPIKAGEVSNRQNGVLVSMATGTALTYSLETLQSRGKLFLGPGDEIYEGQLAGINSRDNDLVINPTKGKKLDNMRASGKDEVIALVPPIRFTLEQALEFIADDELVEVTPKSIRLRKKMLNENDRKRYERSKV | 1800 | – | – | – | –
10 | AlgO (natural protein, source: E. coli, purified (Ni-NTA or Strep-Tactin)) STAVSVGSAQNSWDSLQPDREQVIASLNVVELLKRHHYNKPPLNDERSAKIYDSYLKMLDPARMYFTAGDIAEFDRWRNRFDDFLKSGDLDPGFVIYKRHLDRLKGRLDYALAMLDKGVDKIDFSVDESLLIDREKAPWAKDTAELDDLWRKKVKDEVLRLKITGKDDKAIQEQLTKRYKNQLSRLKQTRSEDIFQAYINAFAQSYDPHTQYLSPDNAENFDINMSLSLEGIGAVLQSDNDYVKVVRLVPAGPAAKSKQIATSDKIIGVAQGKGEMVDVVGWRLDEVVKLIRGPKGSQVRLEVIPASNAPNDQTSKIVAITREAVKLEDQAAKKSIIKVDHEGRSYKLGVIDLPAFYLDFKAYRAGDPNYKSTTRDVKKLVAELQKDKVDGIVLDLRNNGGGSLQEATELTGLFIDQGPTVLVRNSDGRVDVLNDDEGKAFYTGPLAVLVNRLSASASEIFAGAMQDYHRALILGGQTFGKGTVQTIQPLNHGELKLTLAKFYRVSGQSTQHQGVIPDISYPSIVDDKEIGESALPDSMPWDTIRPVVKDEANPFKPFLAQLKAQHDARTENNADFVYARERLALAQELMKEKTVSLNEAKRRAQQTSIENRQLAMENALRKSKGQEPLKELKREDENALPEEDDKTKPQDDAYLTESGHILLDYLNLNSAVAKH | 16000 | – | – | – | –
11 | MltB (enzyme, P. aeruginosa PAO1, UniProt Q9HVX3 1-367, looked up) SSEPTPPPKPAAKPQARTVISPRPVRQSVQPILPLRGDYANNPAAQHFIDRMVSQHGFNRQQLHDLFAQTQRLDWVIRLMDRQAPTYTPPSGPNGAWLRYRKKFVTPGNVQNGVLFWDQYETDLQRASRVYGVPPEIIVGIIGVETRWGRVMGKTRIIDALSTLSFSYPRRAEFFSGELEQFLLQARKEGTDPLALRGSYAGAMGYGQFMPSSFTKYAVDFDGDGHIDLWNPRDAIGSVANYFKQHGWVSGDRVAVPASGRAPSLEDGFKTLYPLDVLASAGLRPQGPLGGHRQASLLRLDMGRNYQYWYGLPNFYVITRYNHSTHYAMAVWELGKEVDRVRHRSVVRQD | 110 | – | – | – | –
12 | MltD (enzyme, P. aeruginosa PAO1, UniProt Q9I2T2 1-534, looked up) QGSGQIKGEAQAKAARPGARAVDVQFNPSWLHTQPGQNAAYNDIWDRMRDGFQLQDAISTNPRIERQRLWFLSNQSFLEQSSARGSLYMHYVVERLEERNMPLELALLPVIESAYNPFALSRSNAAGLWQFIPATGQHFNLRQTNFYDGRRDITASTNAALTYLERLHDMFNGDWMLALAAYNAGEGTVSRAIERNEKLGLPTDYWNLPLPQETQDYVPKLLALSQIVMAPDSYGISLNPINNEPYFQAVRVKRGIDLSSVAALANLDEDELYQLNPAYKRRVTMDGPQQLLVPMEKAAFLTASLDTLKPKEVTAWQQYRVRSGDSLHSIANRYRITVAELKSANRLSSNHLRKGQQLSIPGQIAGGAVKPVYQQLARQASTPARTRSYKVKNGDSLWQIARNNGVDVNDLKRWNGLDKHALKVGQTLKLQGGTQALAARKGNAAGKRDSATYYKVKQGDSMYLIAKRFNVEMKHLQRWNPRSKQALKPGQTLTLYLDTASR | 220 | – | – | – | –
